# B1: deglyco C1 IgG: deglycosylated clone 1 IgG; light chain CDR1 TGSSSNIGRCGVT (SEQ ID NO: 2), N32R/N33C/S34G (antibody, V domains shown)
# VH: EVQLVESGGGLVQPGGSLRLSCAVSGFTFSGYDMSWIRQAPGKGLEWVAGIYPDGGNTYYADSVKGRFTISRDDSKNTFYLQMNSLRAEDTAVYYCARGATWWVLGPFDYWGQGTLVTVSS
# VL: DIQLTQSPSSLSASVGDRVTITCTGSSSNIGRCGVTWYQQKPGKAPKLLIYADSHRPSGVPSRFSGSGSGTDFTLTISSLQPEDFATYYCGAWDDSLSGYVFGQGTKVEIKR
# Assays:
# [1] = test system: HUVEC tube formation; experiment: HUVEC tube formation assay; assay type: cell-based, human; details: branches as % of MOCK
# Experimental: (§1) Genetic mutation introduced during antibody engineering induces unpredicted defects, resulting in deterioration in antibody functions. In order to isolate antibodies for suppressing clec14a-mediated angiogenesis, tube formation and endothelial cell migration assay using human umbilical vein endothelial cells (HUVECs) were conducted in the presence or absence of clone 1 IgG and deglyco C1-C4 IgGs. Among the four types of deglyco IgGs, deglyco C1 IgG was selected as a candidate antibody. […] In addition, it can be seen that deglyco C1 IgG includes desired alterations (N32R/N33C/S34G) in the amino acid sequence in light chain CDR1.
# (§2) In order to compare in vitro angiogenesis suppression effect between deglyco C1 IgG and bevacizumab, tube formation and migration assay were conducted in the presence or absence of parent antibody IgG, deglyco C1 IgG or bevacizumab as a positive control group.
# In order to investigate in vitro effects of deglyco C1 IgG on VEGF-dependent angiogenesis, HUVECs were treated with VEGF in the presence or absence of deglyco C1 IgG, and then HUVEC tube formation assay was conducted. 150 μl of Matrigel was added to a 48-well plate and incubated at 37° C. for 30 minutes. HUVEC (10^5) cultured in EGM-2 were collected, seeded on the Matrigel-coated plate and incubated at 37° C. for 18 hours in the presence or absence of clone 1 IgG, parent antibody IgG, deglycosylated clec14a-CTLD IgG or bevacizumab. HUVECs cultured in VEGF-containing EBM (endothelial cell basal medium) were seeded to the Matrigel-coated plate and incubated at 37° C. for 18 hours in the presence or absence of deglyco C1 IgG (20 μg ml^−1).
# [2] = test system: VEGF-dependent blood vessel growth in rat aorta; experiment: ex vivo rat aortic ring assay; details: cultured in combination with VEGF
# Experimental: In order to further investigate effects of deglyco C1 IgG on VEGF-dependent angiogenesis, ex vivo rat aortic ring assay was conducted in the presence or absence of deglyco C1 IgG and bevacizumab. Blood vessels were almost not grown in the rat aorta in endothelial basal medium (EBM), whereas most blood vessels were grown in the rat aorta under VEGF expression conditions.
# [3] = test system: CFPAC-1 cells; experiment: tumor cell-derived Matrigel plug angiogenesis assay; assay type: in vivo, mouse; details: single dose of 10 mg/kg, 2 weeks, nude mice
# Experimental: (§3) In order to investigate in vivo effects of deglyco C1 IgG on tumor angiogenesis, tumor cell-derived Matrigel plug angiogenesis assay was conducted on thymus-removed nude mice. SNU182- and CFPAC-1 cells and U87 human glioma cells containing Matrigel were transplanted into thymus-removed nude mice in the presence of deglyco C1 IgG and bevacizumab with a single dose of 10 mg/kg or in the absence thereof. 2 weeks later, the Matrigel plug was removed and the total hemoglobulin content of each group was measured with an ELISA reader.
# [4] = test system: SNU182 cells; experiment: as above; assay type: in vivo, mouse; details: single dose of 10 mg/kg, 2 weeks, nude mice
# Experimental: as §3
# [5] = test system: U87 human glioma cells; experiment: as above; assay type: in vivo, mouse; details: single dose of 10 mg/kg, 2 weeks, nude mice
# Experimental: as §3
# [6] = test system: HUVECs; experiment: HUVEC viability (cell counting Kit-8); assay type: cell-based, human; details: 2 days
# Experimental: In order to evaluate effects of deglyco C1 IgG on toxicity of endothelial cells, after treatment with deglyco C1 IgG, viability of HUVECs was measured. Viability was measured in accordance with the manufacturer's manual through cell counting Kit-8 (#CK04-13, Dojindo Laboratories, Kumamoto, Japan).
# [7] = test system: HCT116 human colorectal cancer cells; experiment: Matrigel plug angiogenesis assay, CD31 microvessel density; assay type: in vivo; details: single dose of 5 mg/kg, 14 days
# Experimental: (§4) Matrigel plug angiogenesis assay was conducted in the presence of deglyco C1 IgG or bevacizumab with a single dose of 5 mg/kg or the absence thereof using HCT116 human colorectal cancer cells and bevacizumab-applied HCT116 human colorectal cancer cells (HCT116 and HCT116/Beva). 14 days later, the Matrigel plug was removed, and immunohistochemistry was conducted on CD31 and microvascular markers. A microvessel density was measured by quantifying CD31 positive per field in an image each obtained by a confocal microscope.
# [8] = test system: HCT116/Beva cells; experiment: as above; assay type: in vivo; details: single dose of 5 mg/kg, 14 days
# Experimental: as §4
# [9] = test system: binding of clec14a-CTLD to HUVECs; experiment: cell ELISA: hclec14a-CTLD-Fc-HRP binding to HUVECs; assay type: cell-based, human; details: increasing antibody concentration
# Experimental: In order to analyze action mechanisms of deglyco C1 IgG at a molecule-scale, specifically, in angiogenesis, HUVECs were treated with hclec14a-CTLD-Fc-HRP (HRP-labeled hclec14a-CTLD-Fc) in the absence or presence of an increasing concentration of parent antibody IgG or deglyco C1 IgG.
# [10] = test system: HUVEC migration; experiment: HUVEC migration (wound healing) assay; assay type: cell-based, human; details: % of MOCK
# Experimental: as §1, §2
# [11] = in vivo toxicity in normal mouse; details: intravenous, twice a week
# Source text: In order to investigate in vivo toxicity of deglyco C1 IgG, deglyco C1 IgG was intravenously injected into a normal mouse twice a week, and hepatic and renal functions, body weight, and apoptosis conditions of hepatic and renal tissues between control groups and experimental groups were then compared. The hepatic function was investigated by measuring serum concentrations of glutamic-oxaloacetic transaminase (GOT), glutamic pyruvic transaminase (GPT), and total bilirubin (TBIL), and the renal function was investigated by measuring the concentrations of blood urea nitrogen (BUN) and creatinine (CRE). Apoptosis was measured by TUNEL staining.
# [12] = test system: HUVEC activity; experiment: endothelial cell activation (VCAM-1, ICAM-1 expression); assay type: cell-based, human
# Experimental: In addition, the morphology of HUVEC was evaluated in the presence or absence of deglyco C1 IgG using immunocytochemistry. […] In order to evaluate effects of deglyco C1 IgG on the activity of endothelial cells, which is an initial inflammatory response to a harmful stimulus, HUVECs were treated with deglyco C1 IgG, and expression of an endothelial cell activity marker including VCAM-1 (vascular cell adhesion molecule-1) and ICAM-1 (intercellular cell adhesion molecule-1) was measured to monitor HUVEC activity. Human tumor necrosis factor-alpha (hTNFα) was used as a positive control group for endothelial cell activity.
# [13] = aggregation and purification amounts of deglycosylated antibodies, before and after φ; assay type: physicochemical; details: based on 100 ml culture
molecule,measurement,setting,value
B1,inhibitory activity against HUVEC tube formation,[1],most excellent inhibitory activity
same,inhibitory activity against HUVEC tube formation,[1]; listed as Deglyco C1 IgG,significantly suppressed
same,number of blood vessels grown in the rat aorta,[2],reduced the number of blood vessels grown in the rat aorta
same,"hemoglobin content, CFPAC-1-derived",[3],significantly reduced hemoglobin
same,"hemoglobin content, SNU182-derived",[4],significantly reduced hemoglobin
same,"hemoglobin content, U87-derived",[5],significantly reduced hemoglobin
same,viability of HUVECs,[6],did not exhibit cytotoxic effects
same,"microvessel formation (CD31 positive per field), HCT116",[7],significantly reduced microvessel formation ability
same,"microvessel formation (CD31 positive per field), HCT116/Beva",[8],significantly suppressed
same,suppression of binding of clec14a-CTLD to HUVECs,[9],significantly suppressed
same,inhibitory activity against HUVEC migration,[10],most excellent inhibitory activity
same,inhibitory activity against HUVEC migration,[10]; listed as Deglyco C1 IgG,inhibited migration to a similar extent to bevacizumab
same,apoptosis of hepatic and renal tissues (TUNEL),[11],apoptosis conditions were observed
same,body weight,[11],no significant change in body weight
same,"hepatic and renal functions (GOT, GPT, TBIL, BUN, CRE)",[11],no significant change
same,"HUVEC activity (VCAM-1, ICAM-1 expression)",[12],almost no impact
same,"Final um, After φ",[13],4.821 mg
same,"Final um, Before φ",[13],4.859 mg
same,"Fraction1, After φ",[13],0.009 mg
same,"Fraction1, Before φ",[13],0.011 mg
same,"Fraction2, After φ",[13],3.763 mg
same,"Fraction2, Before φ",[13],3.792 mg
same,"Fraction3, After φ",[13],0.921 mg
same,"Fraction3, Before φ",[13],0.938 mg
same,"Fraction4, After φ",[13],0.128 mg
same,"Fraction4, Before φ",[13],0.129 mg

# From patent US20190309074A1, “DEGLYCOSYLATED ANTIBODY SPECIFICALLY BINDING TO CLEC14A AND USES THEREOF” (WOORI TECHNOLOGIES CORPORATION, priority 2016, published 2019)
